From publication PMC9857240

Biological target: His6-GFP-nCLU
Assay: AlphaScreen or HTRF; 30 nM His6-GFP fusion protein with 0-60 nM biotinylated GST-IPO13; triplicates, sigmoidal association curves

B1: biotinylated GST-IPO13 (natural protein)
chain: MERREEQLGAAGAGAAPALDFTVENVEKALHQLYYDPNIDNKNLAQKWLMQAQVSPQAWHFSWQLLQPDKVPEIQYFGASALHIKISRYWSDIPTDQYESLKAQLFTQITRFASGSKIVLTRLCVALASLALSMMPDAWPCAVADMVRLFQAEDSPVDSQGRCLALLELLTVLPEEFQTSRLPQYRKGLVRTSLAVECGTVFPLLEQLLQQPSSPSCVRQKVLKCFSSWVQLEVPLQDCEALIQAAFAALQDSELFDSSVEAIVNAISQPDAQRYVNTLLKLIPLVLGLQEQLRQAVQNGDMETSHGICRIAVALGENHSRALLDQVEHWQSFLALVNMIMFCTGIPGHYPVNETTSSLTLTFWYTLQDDILSFEAEKQAVYQQVYRPVYFQLVDVLLHKAQFPSDEEYGFWSSDEKEQFRIYRVDISDTLMYVYEMLGAELLSNLYDKLGRLLTSSEEPYSWQHTEALLYGFQSIAETIDVNYSDVVPGLIGLIPRISISNVQLADTVMFTIGALSEWLADHPVMINSVLPLVLHALGNPELSVSSVSTLKKICRECKYDLPPYAANIVAVSQDVLMKQIHKTSQCMWLMQALGFLLSALQVEEILKNLHSLISPYIQQLEKLAEEIPNPSNKLAIVHILGLLSNLFTTLDVSHHEDDHEGPELRKLPVPQGPNPVVVVLQQVFQLIQKVLSKWLNDAQVVEAVCAIFEKSVKTLLDDFAPMVPQLCEMLGRMYSTVPQASALDLTRQLVHIFAHEPAHFPPIEALFLLVTSVTLSLFQQGPRDHPDIVDSFMQLLAQALKRKPDLFLCERLDVKAVFQCAVLALKFPEAPTVKASCGFFTELLPRCGEIESVGKVVQEDGRMLLIAVLEAIGGQASRSLMDCFADILFALNKHCFSLLSMWIKEALQPPGFPSARLSPEQKDTFSQQILRERVNKRRVKEMVKEFTLLCRGLHGTDYTADY
modifications: biotinylated
  Kd: 2.8 nM
